Experimental data from paper PMC12172022, “Overexpression of TaPIP1A enhances drought and salt stress tolerance in Arabidopsis: cross-species conservation and molecular dynamics”.

Target: MBP-TaWRKY71 (Triticum aestivum (wheat) cv. KN9204, UniProt A0A3S6GV84 1-300)
Test: EMSA; complex signal weakened by 200-fold unlabeled competitor; LightShift chemiluminescent EMSA, 6% gel (printed as SDS-PAGE); 25 min at room temperature; probe annealed in 10 mM Tris-HCl pH 7.6, 1 mM EDTA, 50 mM NaCl; binding buffer not stated
Conditions: protein: recombinant; tags: N-terminal MBP (pMALC2X); label: 5' biotin; blunt

MBP-TaWRKY71, sequence (A0A3S6GV84 entry or part of it): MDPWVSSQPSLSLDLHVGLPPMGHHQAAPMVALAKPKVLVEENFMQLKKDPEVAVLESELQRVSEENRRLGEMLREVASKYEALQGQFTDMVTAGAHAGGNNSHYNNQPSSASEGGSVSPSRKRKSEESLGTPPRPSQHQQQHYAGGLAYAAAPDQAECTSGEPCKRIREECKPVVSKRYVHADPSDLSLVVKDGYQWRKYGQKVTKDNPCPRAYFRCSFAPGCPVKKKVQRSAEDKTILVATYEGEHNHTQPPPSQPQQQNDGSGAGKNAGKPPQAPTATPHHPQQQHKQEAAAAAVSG

B1: P-W probe (TaPIP1A promoter) (dsDNA)
DNA 1: CATGACATGACAGGTGAGGTGACACCACAAG
DNA 2: CTTGTGGTGTCACCTCACCTGTCATGTCATG
binding result: binds
